Measurements from patent publication US20200079854A1 (Johns Hopkins, published 2020).

What was measured:
[1] = target: KRAS wt(8-16) peptide … with HLA-A11 and b2M on peptide-pulsed MINO cells (human); test: flow cytometry, phage-displayed scFv on peptide-pulsed MINO cells (FIG. 10)
Description: (§1) Cells were stained with 10 μL of precipitated phage per 100 μL of cells, washed and stained with rabbit anti-M13 antibody, then washed and stained with anti-Rabbit-PE antibody. Cells were stained with a live/dead Near-IR dye, washed, and analyzed by an LSRII flow cytometer.
(§2) The pulsed cells were pelleted, washed once in cold stain buffer (PBS containing 0.5% BSA, 2 mM EDTA, and 0.1% sodium azide), and resuspended in 100 μL of stain buffer. Phage staining was performed on ice with 10 uL (approximately 1×10⁹) phage for 1 hour in 100 uL total volume, followed by one 4 mL wash in cold stain buffer. Cells were then stained with 1 uL of rabbit anti-M13 antibody (Pierce, Rockford, Ill.) in 100 uL total volume on ice for 1 hour and washed once with 4 mL of cold stain buffer. Cells were stained with anti-rabbit-PE (Biolegend) on ice for 1 hour in 100 uL total volume, followed by incubation with LIVE/DEAD Fixable Near-IR Dead Cell Stain (Thermo Fisher) for 10 min at room temperature per manufacturer's instructions. Cells were washed once in 4 mL of stain buffer followed by resuspension in 300 uL of stain buffer before analysis. Stained cells were analyzed using an LSRII flow cytometer (Becton Dickinson, Mansfield, Mass.).

[2] = target: H/K/N RAS wt(55-64) peptide … with HLA-A1 and b2M on peptide-pulsed SigM5 cells (human); test: flow cytometry, phage-displayed scFv on peptide-pulsed SigM5 cells (FIG. 14)
Description: as §1, §2

B1: KRAS_G12D_A11_c114 (scFv)
scFv: DIQMTQSPSSLSASVGDRVTITCRASQDVNTAVAWYQQKPGKAPKLLIYSASFLYSGVPSRFSGSRSGTDFTLTISSLQPEDFATYYCQQYAYYPVTFGQGTKVEIKRTGGGSGGGGSGGGASEVQLVESGGGLVQPGGSLRLSCAASGFNLSGYYMHWVRQAPGKGLEWVAWFSPYSGYTYYADSVKGRFTISADTSKNTAYLQMNSLRAEDTAVYYCSRTHSSIYHSFDYWGQGTLVTVSS
binding result [1]: no binding

B2: KRAS_G12D_A11_c118 (scFv)
scFv: DIQMTQSPSSLSASVGDRVTITCRASQDVNTAVAWYQQKPGKAPKLLIYSASFLYSGVPSRFSGSRSGTDFTLTISSLQPEDFATYYCQQYDFTPMTFGQGTKVEIKRTGGGSGGGGSGGGASEVQLVESGGGLVQPGGSLRLSCAASGFNISYAKMHWVRQAPGKGLEWVAYLTYWGGYTNYADSVKGRFTISADTSKNTAYLQMNSLRAEDTAVYYCSRGEYGTYMDYWGQGTLVTVSS
binding result [1]: no binding

B3: H/K/N RAS Q61K_A1_c18 (scFv)
scFv: DIQMTQSPSSLSASVGDRVTITCRASQDVNTAVAWYQQKPGKAPKLLIYSASFLYSGVPSRFSGSRSGTDFTLTISSLQPEDFATYYCQQYAYAPFTFGQGTKVEIKRTGGGSGGGGSGGGASEVQLVESGGGLVQPGGSLRLSCAASGFNVSYSMIHWVRQAPGKGLEWVARVWGDGGVTYYADSVKGRFTISADTSKNTAYLQMNSLRAEDTAVYYCSRGSYYAFDYWGQGTLVTVSS
binding result [2]: no binding

B4: H/K/N RAS Q61H_A1_c10 (scFv)
scFv: DIQMTQSPSSLSASVGDRVTITCRASQDVNTAVAWYQQKPGKAPKLLIYSASFLYSGVPSRFSGSRSGTDFTLTISSLQPEDFATYYCQQGYFYYPNTFGQGTKVEIKRTGGGSGGGGSGGGASEVQLVESGGGLVQPGGSLRLSCAASGFNIGYYGMHWVRQAPGKGLEWVATVYPGGGYTSYADSVKGRFTISADTSKNTAYLQMNSLRAEDTAVYYCSRYYYYGFDYWGQGTLVTVSS
binding result [2]: no binding

B5: KRAS_G12D_A11_c115 (scFv)
scFv: DIQMTQSPSSLSASVGDRVTITCRASQDVNTAVAWYQQKPGKAPKLLIYSASFLYSGVPSRFSGSRSGTDFTLTISSLQPEDFATYYCQQYSYMPITFGQGTKVEIKRTGGGSGGGGSGGGASEVQLVESGGGLVQPGGSLRLSCAASGFNVSGQYMHWVRQAPGKGLEWVAVISPVSGNTYYADSVKGRFTISADTSKNTAYLQMNSLRAEDTAVYYCSRPMKTSYYGAFDYWGQGTLVTVSS
binding result [1]: no binding

B6: KRAS_G12D_A11_c112 (scFv)
scFv: DIQMTQSPSSLSASVGDRVTITCRASQDVNTAVAWYQQKPGKAPKLLIYSASFLYSGVPSRFSGSRSGTDFTLTISSLQPEDFATYYCQQYSYMPITFGQGTKVEIKRTGGGSGGGGSGGGASEVQLVESGGGLVQPGGSLRLSCAASGFNISYQHIHWVRQAPGKGLEWVAVFMPYQGSTYYADSVKGRFTISADTSKNTAYLQMNSLRAEDTAVYYCSRANIYSSHSFFDYWGQGTLVTVSS
binding result [1]: no binding

B7: KRAS_G12D_A11_c117 (scFv)
scFv: DIQMTQSPSSLSASVGDRVTITCRASQDVNTAVAWYQQKPGKAPKLLIYSASFLYSGVPSRFSGSRSGTDFTLTISSLQPEDFATYYCQQYDYRPVTFGQGTKVEIKRTGGGSGGGGSGGGASEVQLVESGGGLVQPGGSLRLSCAASGFNVSTSGMHWVRQAPGKGLEWVAFIYGAYSGTYYADSVKGRFTISADTSKNTAYLQMNSLRAEDTAVYYCSRSQSYTYWSAMDYWGQGTLVTVSS
binding result [1]: no binding

B8: KRAS_G12D_A11_c14 (scFv)
scFv: DIQMTQSPSSLSASVGDRVTITCRASQDVNTAVAWYQQKPGKAPKLLIYSASFLYSGVPSRFSGSRSGTDFTLTISSLQPEDFATYYCQQYSFYPFTFGQGTKVEIKRTGGGSGGGGSGGGASEVQLVESGGGLVQPGGSLRLSCAASGFNFGSYIHWVRQAPGKGLEWVAIISGYSGNTYYADSVKGRFTISADTSKNTAYLQMNSLRAEDTAVYYCSRSNQSAYSYMDYWGQGTLVTVSS
binding result [1]: no binding

B9: H/K/N RAS Q61K_A1_c16 (scFv)
scFv: DIQMTQSPSSLSASVGDRVTITCRASQDVNTAVAWYQQKPGKAPKLLIYSASFLYSGVPSRFSGSRSGTDFTLTISSLQPEDFATYYCQQHYYSPVTFGQGTKVEIKRTGGGSGGGGSGGGASEVQLVESGGGLVQPGGSLRLSCAASGFNIFYQDMHWVRQAPGKGLEWVAMIYPDYDYTYYADSVKGRFTISADTSKNTAYLQMNSLRAEDTAVYYCSRTYSVYMDYWGQGTLVTVSS
binding result [2]: no binding

B10: KRAS_G12D_A11_c119 (scFv)
scFv: DIQMTQSPSSLSASVGDRVTITCRASQDVNTAVAWYQQKPGKAPKLLIYSASFLYSGVPSRFSGSRSGTDFTLTISSLQPEDFATYYCQQYSSSSPVTFGQGTKVEIKRTGGGSGGGGSGGGASEVQLVESGGGLVQPGGSLRLSCAASGFNFSSYVMHWVRQAPGKGLEWVAVVYPDSGGTYYADSVKGRFTISADTSKNTAYLQMNSLRAEDTAVYYCSRTSSYYAFDYWGQGTLVTVSS
binding result [1]: no binding

B11: KRAS_G12D_A11_c110 (scFv)
scFv: DIQMTQSPSSLSASVGDRVTITCRASQDVNTAVAWYQQKPGKAPKLLIYSASFLYSGVPSRFSGSRSGTDFTLTISSLQPEDFATYYCQQYEYVPHTFGQGTKVEIKRTGGGSGGGGSGGGASEVQLVESGGGLVQPGGSLRLSCAASGFNISYGYMHWVRQAPGKGLEWVAKFHYGSGNTYYADSVKGRFTISADTSKNTAYLQMNSLRAEDTAVYYCSRSNYYYLDYWGQGTLVTVSS
binding result [1]: no binding

B12: H/R/N RAS Q61R_A1_c116 (scFv)
scFv: DIQMTQSPSSLSASVGDRVTITCRASQDVNTAVAWYQQKPGKAPKLLIYSASFLYSGVPSRFSGSRSGTDFTLTISSLQPEDFATYYCQQAHMIPITFGQGTKVEIKRTGGGSGGGGSGGGASEVQLVESGGGLVQPGGSLRLSCAASGFNFSFPGMHWVRQAPGKGLEWVAWFVGYDGYTYYADSVKGRFTISADTSKNTAYLQMNSLRAEDTAVYYCSRDYYSFSMDYWGQGTLVTVSS
binding result [2]: no binding

B13: KRAS_G12D_A11_c16 (scFv)
scFv: DIQMTQSPSSLSASVGDRVTITCRASQDVNTAVAWYQQKPGKAPKLLIYSASFLYSGVPSRFSGSRSGTDFTLTISSLQPEDFATYYCQQYSYSPITFGQGTKVEIKRTGGGSGGGGSGGGASEVQLVESGGGLVQPGGSLRLSCAASGFNISDSYMHWVRQAPGKGLEWVATFSPYSSNTWYADSVKGRFTISADTSKNTAYLQMNSLRAEDTAVYYCSRSQFTFYQYFDYWGQGTLVTVSS
binding result [1]: no binding

B14: KRAS_G12D_A11_c19 (scFv)
scFv: DIQMTQSPSSLSASVGDRVTITCRASQDVNTAVAWYQQKPGKAPKLLIYSASFLYSGVPSRFSGSRSGTDFTLTISSLQPEDFATYYCQQYSYYPITFGQGTKVEIKRTGGGSGGGGSGGGASEVQLVESGGGLVQPGGSLRLSCAASGFNLSYSYMHWVRQAPGKGLEWVAVISGFSGNTYYADSVKGRFTISADTSKNTAYLQMNSLRAEDTAVYYCSRSDSYYTAMDYWGQGTLVTVSS
binding result [1]: no binding

B15: KRAS_G12D_A11_c17 (scFv)
scFv: DIQMTQSPSSLSASVGDRVTITCRASQDVNTAVAWYQQKPGKAPKLLIYSAYFLYSGVPSRFSGSRSGTDFTLTISSLQPEDFATYYCQQYSAYYQPITFGQGTKVEIKRTGGGSGGGGSGGGASEVQLVESGGGLVQPGGSLRLSCAASGFNIFSDQMHWVRQAPGKGLEWVAGFMPYDSYYTNYADSVKGRFTISADTSKNTAYLQMNSLRAEDTAVYYCSRMSVRNAFDYWGQGTLVTVSS
binding result [1]: no binding
